{"source": "patent US12077763B2", "about": "“RNA-based control of powdery mildew” (Greenlight Biosciences, Inc., priority 2021, dated 2024)", "molecules": {"B1": {"name": "GS3921 (nucleic acid)", "sense": "UUCGCGGUGUCUUCCUUUCCAGAGCCUUUAGUCUUUGAAGGAUUUUCUUCUUCAUCCCCAUCUUCACCCUCCGCUUCUGCAUUGACUUCGUCGGCCUUUUUUGCUUUUUUUUCUUCCCCAGAUUUGCCUUUCGUUGUUAGAGCUCCUAGGCCACUAGCGAGAGAAUUUGAACCAUUACCACCGCCAACAAGAACUCCUGCUUUACCUCCUAUGGUCACCUCUUGAAUACUCUGACUUUCAUUUUCCGCAGCAUUGGCUUGCUUUUUGGAAGAUGAGCUAGAGUCAUGUGAUUUUUCUGAAUUCGAUGCCUUAUUUUUCUGAUCUUUU", "antisense": "AAAAGAUCAGAAAAAUAAGGCAUCGAAUUCAGAAAAAUCACAUGACUCUAGCUCAUCUUCCAAAAAGCAAGCCAAUGCUGCGGAAAAUGAAAGUCAGAGUAUUCAAGAGGUGACCAUAGGAGGUAAAGCAGGAGUUCUUGUUGGCGGUGGUAAUGGUUCAAAUUCUCUCGCUAGUGGCCUAGGAGCUCUAACAACGAAAGGCAAAUCUGGGGAAGAAAAAAAAGCAAAAAAGGCCGACGAAGUCAAUGCAGAAGCGGAGGGUGAAGAUGGGGAUGAAGAAGAAAAUCCUUCAAAGACUAAAGGCUCUGGAAAGGAAGACACCGCGAA"}, "B2": {"name": "GS3920 (nucleic acid)", "sense": "UCAACGUAAAUUUUAUAAGCAAGGCUCUGGUAAAGUGGAACCUUACUUUUUAAUCCUCAACAAGGAAGGAGAGUUCAUUGAUGUAGUCGUUGAAGGGCUGAUGAAUAACUUCAUAAGAUGUCAACAAACAAGAAAAAUCUCUACAGAAUUAAUUUCAGAUGCACCUAAUCAACCGGUACCAUCUCAAAUAUCUGGAUAUCAAUGUGGUAAAUUUUUUUUUAGCAAUGAGGAACUUGAGAAUACUGCAAAUGUGGCUAGAGAUAUCAUGCUUCAGAGAAGUCAAAAUAAAAUUCCCACUAAGUAUAA", "antisense": "UUAUACUUAGUGGGAAUUUUAUUUUGACUUCUCUGAAGCAUGAUAUCUCUAGCCACAUUUGCAGUAUUCUCAAGUUCCUCAUUGCUAAAAAAAAAUUUACCACAUUGAUAUCCAGAUAUUUGAGAUGGUACCGGUUGAUUAGGUGCAUCUGAAAUUAAUUCUGUAGAGAUUUUUCUUGUUUGUUGACAUCUUAUGAAGUUAUUCAUCAGCCCUUCAACGACUACAUCAAUGAACUCUCCUUCCUUGUUGAGGAUUAAAAAGUAAGGUUCCACUUUACCAGAGCCUUGCUUAUAAAAUUUACGUUGA"}, "B3": {"name": "GS3925 (nucleic acid)", "sense": "UUUGAAAAACACACAACCCCAGAAGAAUACGAUAGCAUAUCAUUGGCCAAGCACCCUCAGUUGCAUGUUGAGGAUGAUUCAUGGCAUAGAGCAACUGGUACUUGUAAGUGUAAUAACUGUUAAUGAAGUAUAUAAUCCCAAAAAAUAGAACCAUAUAACCAGCCGGUAGAAUUGAGUAUACAAUACACAAAAUGUAUACAAGGAUUGCAGAGGGUAGAUAAAACCCGUAUUUGAAGACAGGAGGCUGUGUAAGCUCCCAGCGAUCCCUAGGGCUUUUUGAAUACAUACGCAUAAUUGGAUAUAGAGACACACUGCCAAACUCUAAGAGCCUUAAUGGUAUGAAACCAA", "antisense": "UUGGUUUCAUACCAUUAAGGCUCUUAGAGUUUGGCAGUGUGUCUCUAUAUCCAAUUAUGCGUAUGUAUUCAAAAAGCCCUAGGGAUCGCUGGGAGCUUACACAGCCUCCUGUCUUCAAAUACGGGUUUUAUCUACCCUCUGCAAUCCUUGUAUACAUUUUGUGUAUUGUAUACUCAAUUCUACCGGCUGGUUAUAUGGUUCUAUUUUUUGGGAUUAUAUACUUCAUUAACAGUUAUUACACUUACAAGUACCAGUUGCUCUAUGCCAUGAAUCAUCCUCAACAUGCAACUGAGGGUGCUUGGCCAAUGAUAUGCUAUCGUAUUCUUCUGGGGUUGUGUGUUUUUCAAA"}, "B4": {"name": "GS3919 (nucleic acid)", "sense": "AUUGCGCCAAAAUGUGAGGUAAGGAUUACUAACUUGCUGAGCUUGAAGAACUCAUCAACACCAGUAUCUUUAGCUGGUAAACAAGUUAAGCAAAUUCAAAGCAACUUACCAUCGACAAGUAAACAACUUGGAAUAUUUGCAAAAGAAAACAUCUUACCGGGCGAAUCAAUCCUUAAAGAGCUGUCAUAUCUCACUGUUAAUAAUAGACUCAAAGGCCCUCUAUGUGAUGCUUGUAGUGCUGAAAUUCCUUCUCUAUAUGAAACUGAAAGUACAGCAAUGAGCUGUCUCGAGUGUGAUGAAAUCUCAUUCUGUAGUGAUGAAUGCAAACGUGGAGCUGAGCUCGAAUAUCAUCCAGCAGUAUGUGGUAAAGAUGUUGAGACAAUUGGCAAGGACUGG", "antisense": "CCAGUCCUUGCCAAUUGUCUCAACAUCUUUACCACAUACUGCUGGAUGAUAUUCGAGCUCAGCUCCACGUUUGCAUUCAUCACUACAGAAUGAGAUUUCAUCACACUCGAGACAGCUCAUUGCUGUACUUUCAGUUUCAUAUAGAGAAGGAAUUUCAGCACUACAAGCAUCACAUAGAGGGCCUUUGAGUCUAUUAUUAACAGUGAGAUAUGACAGCUCUUUAAGGAUUGAUUCGCCCGGUAAGAUGUUUUCUUUUGCAAAUAUUCCAAGUUGUUUACUUGUCGAUGGUAAGUUGCUUUGAAUUUGCUUAACUUGUUUACCAGCUAAAGAUACUGGUGUUGAUGAGUUCUUCAAGCUCAGCAAGUUAGUAAUCCUUACCUCACAUUUUGGCGCAAU"}, "B5": {"name": "GS1816: dsRNA trigger SEQ ID NO 174; gene target Plasma membrane ATPase (nucleic acid)", "DNA": "CAACCACTGAGACTTGTTCAATACATGATACACAATAGCAATCACTATCGTGACAGCAATAGAATAGCCCCAGACAACAATAATAGTGACAATGGAGGTTCTTCCGTCAGTAGATAAAAGGGAGTTTAATGTGGCAGGATCTGAAGGCTCACCAGCACCGCCAGTTAACCAACCAAAGAGACAGAAGAGAGTTGCAAGTACATCAACACCGAATATAGCAGCAACGAGTGCAAATGCAGGATAAGTCTCATCTCCTCTGGTGACAAAGATGAGCCAGTTTTCGGTGAGAGAAATTTGAAGGAATAACATTCCCTGGATAGATCCAAAGTTATCAATCATGCCACCATTAGGTAAGAAAAGCGAGCCACGTAATACCCATGTTCCAAGAGCAAGCAATATGCCAAGAACAACAGAGATAATCCAGATTTTAGGTAATTGCCACTCAACAGGTCGAATCTCAAAGTGAGCGTTGTCGTATGCAACTGCAATTGTGGCTAAATCGGCAAAAAGTGCAAGGAAGACAATTAAATCAACCCGGACAGTTTCGTTAATAATGATCATAGAGGTTACAAGATAGATTTCTAAGTGTAAACATAA"}, "B6": {"name": "GS3927 (nucleic acid)", "sense": "CUGAAUCAGAUGAUGGGGGUAAUGAACGUAUGAUAAAUAGUAAGAAACCGCGAAGUACAUGCUCGAAGACCCUAAGGGAAAAAGAUUUGAAAGAUGAUAAAGAAAAGUCCAGAUCUGAUGCUGUAGCUAAAAGAAAUGGUCGUACAGAGCGGAGAAGAACUGAAGAUCAAGAAACACAGAAGGAAUUGUCAAUUGGUACUAAAAAUACAAUGUGCAAUAGCACAGACUCUUCUAAAGUCUCUACAACGAUUGAAUCUCUUGAGUCUCCGACAUUAUCAAAUGGUAGAGUUUCAGACAAUUCAUCUAACAACCAAUUUCCAAUACCUUUAAAAAAAAGCUACCGUAAUUCAAAUUCUAGGAAAGGGAAAUUAGCCAAAAAUAAUUUCACAAGGGAAU", "antisense": "AUUCCCUUGUGAAAUUAUUUUUGGCUAAUUUCCCUUUCCUAGAAUUUGAAUUACGGUAGCUUUUUUUUAAAGGUAUUGGAAAUUGGUUGUUAGAUGAAUUGUCUGAAACUCUACCAUUUGAUAAUGUCGGAGACUCAAGAGAUUCAAUCGUUGUAGAGACUUUAGAAGAGUCUGUGCUAUUGCACAUUGUAUUUUUAGUACCAAUUGACAAUUCCUUCUGUGUUUCUUGAUCUUCAGUUCUUCUCCGCUCUGUACGACCAUUUCUUUUAGCUACAGCAUCAGAUCUGGACUUUUCUUUAUCAUCUUUCAAAUCUUUUUCCCUUAGGGUCUUCGAGCAUGUACUUCGCGGUUUCUUACUAUUUAUCAUACGUUCAUUACCCCCAUCAUCUGAUUCAG"}, "B7": {"name": "GS3922 (nucleic acid)", "sense": "CCCGAAUGAAUGCUAUCAACAUGGGAUAGUAGUUCACGUUCACUCCGAAAUUUUAUAUUACAAAACAUACACUCUGCAUGUUCUUUUCGAAUAUGAGCCUGUAACUUUGAAUAACUUGUGAAGCCUAGAUUUAAUGGCGUACCAUCUGAAUUAAAAGAUCCUGUCAAGCAACAUUCAUUACAGAAAUAUCGAGCACUGCCAUGAGCUCGCUCUUGGUGUCGACGAAGGCUGGCGGAACUAUCGAAACCUGAGUUGCAACUUUCGCCAGUGACAGGGUCAACAUGGACACAGGGAUACGGCAUAAGCUGAAGAUGUUCAGAGCGAAUAUGACGCUGGAGAGUUUGAUGUUUUCGGAAAUUUUGGCUACAGGGUGGGUAAUUUGUACAUUUGAAU", "antisense": "AUUCAAAUGUACAAAUUACCCACCCUGUAGCCAAAAUUUCCGAAAACAUCAAACUCUCCAGCGUCAUAUUCGCUCUGAACAUCUUCAGCUUAUGCCGUAUCCCUGUGUCCAUGUUGACCCUGUCACUGGCGAAAGUUGCAACUCAGGUUUCGAUAGUUCCGCCAGCCUUCGUCGACACCAAGAGCGAGCUCAUGGCAGUGCUCGAUAUUUCUGUAAUGAAUGUUGCUUGACAGGAUCUUUUAAUUCAGAUGGUACGCCAUUAAAUCUAGGCUUCACAAGUUAUUCAAAGUUACAGGCUCAUAUUCGAAAAGAACAUGCAGAGUGUAUGUUUUGUAAUAUAAAAUUUCGGAGUGAACGUGAACUACUAUCCCAUGUUGAUAGCAUUCAUUCGGG"}, "B8": {"name": "GS3917 (nucleic acid)", "sense": "CCAGGCUAAAUCUGUGCUCCAAACACAGUCAGUAAUACAGACUUUAAUUGCUGAGUGUUUAUCUUUGGGGAAAACAAAAAUGAUUAUUGAUCUCUCCUCGAAUAGUGGAGGUAAUUUGGUCGUUGGUUAUGACACAUUCCGACAAUUUUUCCCUACCAUUGAACAGCCAGGUUAUUCACGAUUUCGAUUACACGAGGCGCUAAAAAUUAUUACGAAACAGAUCUCGAAAAUCGCAUCGAAUUUCUCUUUUACAAGUACAAACCCCACUGAUUAUGAUUAUUACCAAACUCCGUUUAAUUAUAGAUUCGAUCUAAAUGAAACCAAUGAAAAAUUUCUUAGCUACGAGGAUAAAUUCAGUCCAAGAAAAUUUAAUGGUGAUGAAUUCACUAGCAAUAUGA", "antisense": "UCAUAUUGCUAGUGAAUUCAUCACCAUUAAAUUUUCUUGGACUGAAUUUAUCCUCGUAGCUAAGAAAUUUUUCAUUGGUUUCAUUUAGAUCGAAUCUAUAAUUAAACGGAGUUUGGUAAUAAUCAUAAUCAGUGGGGUUUGUACUUGUAAAAGAGAAAUUCGAUGCGAUUUUCGAGAUCUGUUUCGUAAUAAUUUUUAGCGCCUCGUGUAAUCGAAAUCGUGAAUAACCUGGCUGUUCAAUGGUAGGGAAAAAUUGUCGGAAUGUGUCAUAACCAACGACCAAAUUACCUCCACUAUUCGAGGAGAGAUCAAUAAUCAUUUUUGUUUUCCCCAAAGAUAAACACUCAGCAAUUAAAGUCUGUAUUACUGACUGUGUUUGGAGCACAGAUUUAGCCUGG"}}}
{"tested_on": "E. necator", "assay": "Leaf disc assay, dry inoculum (settling tower), decrease in disease severity / hyphal growth (Example 2)", "conditions": "decrease in disease severity (hyphal growth) relative to untreated control; time point 1 (untreated control hyphal growth ≥50%); value ± SE", "units": {"% decrease =/− SE TP1": "%"}}
{"molecule": "B1", "% decrease =/− SE TP1": "3 ± 8"}
{"molecule": "B2", "% decrease =/− SE TP1": "14 ± 11"}
{"molecule": "B3", "% decrease =/− SE TP1": "18 ± 4"}
{"molecule": "B4", "% decrease =/− SE TP1": "23 ± 8"}
{"molecule": "B5", "% decrease =/− SE TP1": "61 ± 2"}
{"molecule": "B6", "% decrease =/− SE TP1": "7 ± 3"}
{"tested_on": "E. necator", "assay": "Leaf disc assay, dry inoculum (settling tower), decrease in disease severity / hyphal growth (Example 2)", "conditions": "decrease in disease severity (hyphal growth) relative to untreated control; time point 2; value ± SE", "units": {"% decrease =/− SE TP2": "%"}}
{"molecule": "B7", "% decrease =/− SE TP2": "27 ± 12"}
{"molecule": "B1", "% decrease =/− SE TP2": "8 ± 8"}
{"molecule": "B2", "% decrease =/− SE TP2": "12 ± 12"}
{"molecule": "B3", "% decrease =/− SE TP2": "3 ± 6"}
{"molecule": "B8", "% decrease =/− SE TP2": "29 ± 12"}
{"molecule": "B4", "% decrease =/− SE TP2": "16 ± 9"}
{"molecule": "B5", "% decrease =/− SE TP2": "50 ± 7"}
